According to PMC3545708:

Target: isolated HC fragment of BoNT/A (receptor-binding domain), wild type (Clostridium botulinum)
Experiment: ITC

Question: With “full-length NTNHA-A1 (non-toxic non-hemagglutinin protein) (from UniProt Q45914 1-1193) (natural protein)” as the substance, how does the Kd read?
Answer: 0.0483 µM
